According to article PMC6821171, “LYAR potentiates rRNA synthesis by recruiting BRD2/4 and the MYST-type acetyltransferase KAT7 to rDNA” (Nucleic Acids Research, 2019):

Molecular target: T1, peptide LYAR_(175-219) (human, UniProt Q9NX58 175-219)
T1 construct: LYAR, human, residues 175-219
Experiment: ITC; peptide BRD2 489-540 with peptide LYAR 175-219 (Supplementary Figure S5E)
Conditions: both partners purified

B1: peptide BRD2_(489-540) (peptide, UniProt P25440 489-540, looked up)
peptide: SSSEEEEEEDEEDEEEEESESSDSEEERAHRLAELQEQLRAVHEQLAALSQG
notes: Bromodomain-containing protein 2, human, residues 489-540
  stoichiometry N: 1
